US20140087995A1 (published 2014)
Numbered stars: 1 amine (or outer) side, 2 acyl side, 3 side chain; on linkers, the order of the positions; unused ones are H or OH. Bridge positions count the residues as written; N and C are the ends. Side chains are listed from the residue outwards. Ends that are not written are not given here. * marks the point of attachment. C20 diacid = O=C(O)CCCCCCCCCCCCCCCCCCC(=O)*; γGlu = O=C(O)[C@H](CCC(=O)[*:2])N[*:1]; AEEA = NCCOCCOCC(=O)O

T1: human calcitonin receptor (human, UniProt P30988 25-474)
T1 sequence (looked up): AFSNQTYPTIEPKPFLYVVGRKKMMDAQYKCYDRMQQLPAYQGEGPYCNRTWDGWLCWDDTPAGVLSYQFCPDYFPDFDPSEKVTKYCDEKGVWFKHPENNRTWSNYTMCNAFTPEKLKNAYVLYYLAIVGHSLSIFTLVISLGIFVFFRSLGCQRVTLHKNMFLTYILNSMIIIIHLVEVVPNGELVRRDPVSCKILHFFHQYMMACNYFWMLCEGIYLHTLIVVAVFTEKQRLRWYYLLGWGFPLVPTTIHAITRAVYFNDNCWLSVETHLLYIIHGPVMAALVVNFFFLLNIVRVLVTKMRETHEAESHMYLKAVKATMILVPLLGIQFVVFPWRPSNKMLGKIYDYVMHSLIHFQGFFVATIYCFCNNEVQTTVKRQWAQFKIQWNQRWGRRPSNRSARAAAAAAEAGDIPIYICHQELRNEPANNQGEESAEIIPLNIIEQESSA


Molecular target: T1, human calcitonin receptor
Assay: cell-based or functional assay

Binder	hCTR funct. EC50 [nM]
K([AEEA-γGlu-C20 diacid])CNTATCATQRLANFLRHSSPNFGAIPSSTNVGPNTY-NH2 (disulfide 2-7; N-terminus assumed; SMILES CC[C@H](C)[C@H](NC(=O)[C@H](C)NC(=O)CNC(=O)[C@H](Cc1ccccc1)NC(=O)[C@H](CC(N)=O)NC(=O)[C@@H]1CCCN1C(=O)[C@H](CO)NC(=O)[C@H](CO)NC(=O)[C@H](Cc1c[nH]cn1)NC(=O)[C@H](CCCNC(=N)N)NC(=O)[C@H](CC(C)C)NC(=O)[C@H](Cc1ccccc1)NC(=O)[C@H](CC(N)=O)NC(=O)[C@H](C)NC(=O)[C@H](CC(C)C)NC(=O)[C@H](CCCNC(=N)N)NC(=O)[C@H](CCC(N)=O)NC(=O)[C@@H](NC(=O)[C@H](C)NC(=O)[C@@H]1CSSC[C@H](NC(=O)[C@@H](N)CCCCNC(=O)COCCOCCNC(=O)CC[C@H](NC(=O)CCCCCCCCCCCCCCCCCCC(=O)O)C(=O)O)C(=O)N[C@@H](CC(N)=O)C(=O)N[C@@H]([C@@H](C)O)C(=O)N[C@@H](C)C(=O)N[C@@H]([C@@H](C)O)C(=O)N1)[C@@H](C)O)C(=O)N1CCC[C@H]1C(=O)N[C@@H](CO)C(=O)N[C@@H](CO)C(=O)N[C@H](C(=O)N[C@@H](CC(N)=O)C(=O)N[C@H](C(=O)NCC(=O)N1CCC[C@H]1C(=O)N[C@@H](CC(N)=O)C(=O)N[C@H](C(=O)N[C@@H](Cc1ccc(O)cc1)C(N)=O)[C@@H](C)O)C(C)C)[C@@H](C)O, h-amylin derivative; disulfide bridge and C-terminal amide as told for human amylin; also called compound 50)	0.662
K([γGlu-C20 diacid])CNTATCATQRLANFLRHSSPNFGAIPSSTNVGSKTY-NH2 (disulfide 2-7; N-terminus assumed; SMILES CC[C@H](C)[C@H](NC(=O)[C@H](C)NC(=O)CNC(=O)[C@H](Cc1ccccc1)NC(=O)[C@H](CC(N)=O)NC(=O)[C@@H]1CCCN1C(=O)[C@H](CO)NC(=O)[C@H](CO)NC(=O)[C@H](Cc1c[nH]cn1)NC(=O)[C@H](CCCNC(=N)N)NC(=O)[C@H](CC(C)C)NC(=O)[C@H](Cc1ccccc1)NC(=O)[C@H](CC(N)=O)NC(=O)[C@H](C)NC(=O)[C@H](CC(C)C)NC(=O)[C@H](CCCNC(=N)N)NC(=O)[C@H](CCC(N)=O)NC(=O)[C@@H](NC(=O)[C@H](C)NC(=O)[C@@H]1CSSC[C@H](NC(=O)[C@@H](N)CCCCNC(=O)CC[C@H](NC(=O)CCCCCCCCCCCCCCCCCCC(=O)O)C(=O)O)C(=O)N[C@@H](CC(N)=O)C(=O)N[C@@H]([C@@H](C)O)C(=O)N[C@@H](C)C(=O)N[C@@H]([C@@H](C)O)C(=O)N1)[C@@H](C)O)C(=O)N1CCC[C@H]1C(=O)N[C@@H](CO)C(=O)N[C@@H](CO)C(=O)N[C@H](C(=O)N[C@@H](CC(N)=O)C(=O)N[C@H](C(=O)NCC(=O)N[C@@H](CO)C(=O)N[C@@H](CCCCN)C(=O)N[C@H](C(=O)N[C@@H](Cc1ccc(O)cc1)C(N)=O)[C@@H](C)O)C(C)C)[C@@H](C)O, h-amylin derivative; disulfide bridge and C-terminal amide as told for human amylin; also called compound 35) [N^ε1-[(4S)-4-carboxy-4-(19-carboxynonadecanoylamino)butanoyl]-[Arg17,Pro21,Pro27,Lys35]-h-amylin]	5.46
K([γGlu-C20 diacid])CNTATCATQRLANFLRHSSPNFGAIPSSTNVGSETY-NH2 (disulfide 2-7; N-terminus assumed; SMILES CC[C@H](C)[C@H](NC(=O)[C@H](C)NC(=O)CNC(=O)[C@H](Cc1ccccc1)NC(=O)[C@H](CC(N)=O)NC(=O)[C@@H]1CCCN1C(=O)[C@H](CO)NC(=O)[C@H](CO)NC(=O)[C@H](Cc1c[nH]cn1)NC(=O)[C@H](CCCNC(=N)N)NC(=O)[C@H](CC(C)C)NC(=O)[C@H](Cc1ccccc1)NC(=O)[C@H](CC(N)=O)NC(=O)[C@H](C)NC(=O)[C@H](CC(C)C)NC(=O)[C@H](CCCNC(=N)N)NC(=O)[C@H](CCC(N)=O)NC(=O)[C@@H](NC(=O)[C@H](C)NC(=O)[C@@H]1CSSC[C@H](NC(=O)[C@@H](N)CCCCNC(=O)CC[C@H](NC(=O)CCCCCCCCCCCCCCCCCCC(=O)O)C(=O)O)C(=O)N[C@@H](CC(N)=O)C(=O)N[C@@H]([C@@H](C)O)C(=O)N[C@@H](C)C(=O)N[C@@H]([C@@H](C)O)C(=O)N1)[C@@H](C)O)C(=O)N1CCC[C@H]1C(=O)N[C@@H](CO)C(=O)N[C@@H](CO)C(=O)N[C@H](C(=O)N[C@@H](CC(N)=O)C(=O)N[C@H](C(=O)NCC(=O)N[C@@H](CO)C(=O)N[C@@H](CCC(=O)O)C(=O)N[C@H](C(=O)N[C@@H](Cc1ccc(O)cc1)C(N)=O)[C@@H](C)O)C(C)C)[C@@H](C)O, h-amylin derivative; disulfide bridge and C-terminal amide as told for human amylin; also called compound 27) [N^ε1-[(4S)-4-carboxy-4-(19-carboxynonadecanoylamino)butanoyl]-[Arg17,Pro21,Pro27,Glu35]-h-amylin]	3

The remaining lines, values ahead:

hCTR funct. EC50 [nM]	Binder
3	K([γGlu-γGlu-C20 diacid])CNTATCATQRLADFLRHSSPNFGAIPSSTNVGSDTY-NH2 (disulfide 2-7; N-terminus assumed; SMILES CC[C@H](C)[C@H](NC(=O)[C@H](C)NC(=O)CNC(=O)[C@H](Cc1ccccc1)NC(=O)[C@H](CC(N)=O)NC(=O)[C@@H]1CCCN1C(=O)[C@H](CO)NC(=O)[C@H](CO)NC(=O)[C@H](Cc1c[nH]cn1)NC(=O)[C@H](CCCNC(=N)N)NC(=O)[C@H](CC(C)C)NC(=O)[C@H](Cc1ccccc1)NC(=O)[C@H](CC(=O)O)NC(=O)[C@H](C)NC(=O)[C@H](CC(C)C)NC(=O)[C@H](CCCNC(=N)N)NC(=O)[C@H](CCC(N)=O)NC(=O)[C@@H](NC(=O)[C@H](C)NC(=O)[C@@H]1CSSC[C@H](NC(=O)[C@@H](N)CCCCNC(=O)CC[C@H](NC(=O)CC[C@H](NC(=O)CCCCCCCCCCCCCCCCCCC(=O)O)C(=O)O)C(=O)O)C(=O)N[C@@H](CC(N)=O)C(=O)N[C@@H]([C@@H](C)O)C(=O)N[C@@H](C)C(=O)N[C@@H]([C@@H](C)O)C(=O)N1)[C@@H](C)O)C(=O)N1CCC[C@H]1C(=O)N[C@@H](CO)C(=O)N[C@@H](CO)C(=O)N[C@H](C(=O)N[C@@H](CC(N)=O)C(=O)N[C@H](C(=O)NCC(=O)N[C@@H](CO)C(=O)N[C@@H](CC(=O)O)C(=O)N[C@H](C(=O)N[C@@H](Cc1ccc(O)cc1)C(N)=O)[C@@H](C)O)C(C)C)[C@@H](C)O, h-amylin derivative; disulfide bridge and C-terminal amide as told for human amylin; also called compound 2)
14.1	K([γGlu-γGlu-C20 diacid])CNTATCATQRLADFLRHSSPNFGAIPSSTNVGSRTY-NH2 (disulfide 2-7; N-terminus assumed; SMILES CC[C@H](C)[C@H](NC(=O)[C@H](C)NC(=O)CNC(=O)[C@H](Cc1ccccc1)NC(=O)[C@H](CC(N)=O)NC(=O)[C@@H]1CCCN1C(=O)[C@H](CO)NC(=O)[C@H](CO)NC(=O)[C@H](Cc1c[nH]cn1)NC(=O)[C@H](CCCNC(=N)N)NC(=O)[C@H](CC(C)C)NC(=O)[C@H](Cc1ccccc1)NC(=O)[C@H](CC(=O)O)NC(=O)[C@H](C)NC(=O)[C@H](CC(C)C)NC(=O)[C@H](CCCNC(=N)N)NC(=O)[C@H](CCC(N)=O)NC(=O)[C@@H](NC(=O)[C@H](C)NC(=O)[C@@H]1CSSC[C@H](NC(=O)[C@@H](N)CCCCNC(=O)CC[C@H](NC(=O)CC[C@H](NC(=O)CCCCCCCCCCCCCCCCCCC(=O)O)C(=O)O)C(=O)O)C(=O)N[C@@H](CC(N)=O)C(=O)N[C@@H]([C@@H](C)O)C(=O)N[C@@H](C)C(=O)N[C@@H]([C@@H](C)O)C(=O)N1)[C@@H](C)O)C(=O)N1CCC[C@H]1C(=O)N[C@@H](CO)C(=O)N[C@@H](CO)C(=O)N[C@H](C(=O)N[C@@H](CC(N)=O)C(=O)N[C@H](C(=O)NCC(=O)N[C@@H](CO)C(=O)N[C@@H](CCCNC(=N)N)C(=O)N[C@H](C(=O)N[C@@H](Cc1ccc(O)cc1)C(N)=O)[C@@H](C)O)C(C)C)[C@@H](C)O, h-amylin derivative; disulfide bridge and C-terminal amide as told for human amylin; also called compound 52)
